In this assay the target is mitogen-activated protein kinase-activated protein kinase 2 (MK2), P49137. Briefly: cell-based or functional assay.

Where no end group is shown, it is not given here. A value given as a limit tells only on which side of the number the result lay.

Sequence of mitogen-activated protein kinase-activated protein kinase 2 (MK2), P49137 (P49137 46-400): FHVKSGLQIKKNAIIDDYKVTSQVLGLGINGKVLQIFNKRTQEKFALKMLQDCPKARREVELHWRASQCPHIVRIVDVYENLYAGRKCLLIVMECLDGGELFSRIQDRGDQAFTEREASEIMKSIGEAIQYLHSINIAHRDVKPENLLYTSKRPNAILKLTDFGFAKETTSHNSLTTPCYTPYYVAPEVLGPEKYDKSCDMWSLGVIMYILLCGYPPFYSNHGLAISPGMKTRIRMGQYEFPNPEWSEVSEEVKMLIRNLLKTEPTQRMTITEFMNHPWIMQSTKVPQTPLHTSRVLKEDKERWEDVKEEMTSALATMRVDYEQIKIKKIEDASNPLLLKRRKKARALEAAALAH

Turning to YARAAARQARAKALARQLGVAA (not fully specified (C-terminus)) [MMI-0100 (…; SEQ ID NO: 1)], the Percent Activity (radiometric kinase assay, peptide at 100 µM) is below 5 % activity.

For the origin of these results see patent US20130115256A1, “METHODS FOR TREATING OR PREVENTING VASCULAR GRAFT FAILURE” (priority 2010, published 2013).
